In US11434289B2, “Anti-GPR20 antibody and anti-GPR20 antibody-drug conjugate” (DAIICHI SANKYO COMPANY, LIMITED, priority 2017, dated 2022):
Substitutions are numbered along the chain they refer to.

B1: 04-079: rat anti-human GPR20 antibody; heavy chain SEQ ID NO: 12, light chain SEQ ID NO: 17 (antibody, listed as Rattus norvegicus)
heavy: MEWNWVFLFLLSVTAVVHSQVQLQQSGAELAKPGSSVKISCKASGYTFTSYYITWIKQTTGQGLKYIGYINPGSGHTNYNEKFKGKATLTVDKSSSTAFMQLSSLTPDDSAVYYCARGAGGFLRIISKFDYWGQGVMVTVSSAQTTAPSVYPLAPGCGDTTSSTVTLGCLVKGYFPEPVTVTWNSGALSSDVHTFPAVLQSGLYTLTSSVTSSTWPSQTVTCNVAHPASSTKVDKKVERRNGGIGHKCPTCPTCHKCPVPELLGGPSVFIFPPKPKDILLISQNAKVTCVVVDVSEEEPDVQFSWFVNNVEVHTAQTQPREEQYNSTFRVVSALPIQHQDWMSGKEFKCKVNNKALPSPIEKTISKPKGLVRKPQVYVMGPPTEQLTEQTVSLTCLTSGFLPNDIGVEWTSNGHIEKNYKNTEPVMDSDGSFFMYSKLNVERSRWDSRAPFVCSVVHEGLHNHHVEKSISRPPGK
light: METDRLLLWVLLLWVPGSTGDTVLTQSPALAVSLGQRVTISCRASKSVSTYMHWYQQRSGQQPKLLIYSASNLESGVPSRFSGSGSGTDFTLTIDPVKADDITNYYCQQSNELPYTFGAGTKLELKRADAAPTVSIFPPSTEQLATGGASVVCLMNNFYPRDISVKWKIDGTERRDGVLDSVTDQDSKDSTYSMSSTLSLTKADYESHNLYTCEVVHKTSSSPVVKSFNRNEC
modifications: SIGNAL (1)..(19); SIGNAL (1)..(20)
B2: 04-046: rat anti-human GPR20 antibody; heavy chain SEQ ID NO: 2, light chain SEQ ID NO: 7 (antibody, listed as Rattus norvegicus)
heavy: B1 heavy with V16E, T54S, Y69F, V112I, S127T
light: B1 light with M52I, K98E, A99P, T103A, S110I
modifications: SIGNAL (1)..(19); SIGNAL (1)..(20)
B3: 04-126: rat anti-human GPR20 antibody; heavy chain SEQ ID NO: 22, light chain SEQ ID NO: 27 (antibody, listed as Rattus norvegicus)
heavy: B1 heavy with V16E, Q24R, T54I, I56M, T60A, K65Q, I67V, A119T
light: B1 light with N72T, K98E, T103A
modifications: SIGNAL (1)..(19); SIGNAL (1)..(20)

target: T1, human GPR20 with EC2 substituted with a mouse GPR20-derived sequence (Homo sapiens, UniProt Q99678, Y113F); assay: Cell-ELISA binding to human/mouse chimeric GPR20 (EC2 substituted); details: hGPR20_mECD2, FIG. 22
T1 construct: expressed in transfected cells; host or cells: 293α cells, transient
Procedure: (§1) The culture supernatant of the 293a cells transfected with the expression vector prepared in Example 1)-4-1 was removed, and the culture supernatant from each hybridoma was then added to the 293a cells transfected either with pcDNA3.1-hGPR20 or pcDNA3.1. The cells were left standing at 4° C. for 1 hour. The cells in the wells were washed once with PBS (+) supplemented with 5% FBS, and thereafter, Anti-Rat IgG-Peroxidase antibody produced in rabbit (Sigma-Aldrich Co. LLC) that had been 500-fold diluted with PBS (+) supplemented with 5% FBS was added to the wells. The cells were left standing at 4° C. for 1 hour. The cells in the wells were washed three times with PBS (+) supplemented with 5% FBS, and thereafter, OPD chromogenic solution (which had been prepared by dissolving o-phenylenediamine dihydrochloride (Wako Pure Chemical Industries, Ltd.) and H2O2 in an OPD solution (0.05 M trisodium citrate, 0.1 M disodium hydrogen phosphate 12-water; pH 4.5), so that the substances became 0.4 mg/ml and 0.6% (v/v), respectively) was added in an amount of 100 μL/well to the wells. A coloring reaction was carried out with occasional stirring. Thereafter, 1 M HCl was added to the plate (100 μL/well) to terminate the coloring reaction, followed by measurement of the absorbance at 490 nm using a plate reader (ENVISION: PerkinElmer, Inc.).
In the construction of expression vectors given below, using the full-length human GPR20 expression vector pcDNA3.1-hGPR20 produced in Example 1 as a template, each PCR reaction was carried out with the primer set given below. In this reaction, KOD FX DNA polymerase (Toyobo Co., Ltd.) was used, and the reaction was carried out at 15 cycles or 10 cycles each involving 98° C. for 10 seconds, 58° C. for 30 seconds, and 68° C. for 7 minutes. Thereafter, the obtained PCR product was treated with the restriction enzyme Dpnl. […]

T1 sequence (Q99678 whole entry Y113F): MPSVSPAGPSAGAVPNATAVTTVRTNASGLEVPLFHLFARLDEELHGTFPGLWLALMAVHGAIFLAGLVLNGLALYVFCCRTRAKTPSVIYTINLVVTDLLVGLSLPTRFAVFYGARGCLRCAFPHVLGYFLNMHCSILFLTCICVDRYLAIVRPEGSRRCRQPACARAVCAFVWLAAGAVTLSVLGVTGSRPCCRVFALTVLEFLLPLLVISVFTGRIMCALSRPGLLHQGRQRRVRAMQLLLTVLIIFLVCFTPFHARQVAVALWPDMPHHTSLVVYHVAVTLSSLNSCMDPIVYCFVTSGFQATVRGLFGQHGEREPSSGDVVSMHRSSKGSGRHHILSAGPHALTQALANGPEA

Molecule | binding activity after substituting EC2 of human GPR20 with that of mouse-derived GPR20
B1 | lost binding activity
B2 | lost binding activity
B3 | lost binding activity

target: T2, human GPR20 with EC1 substituted with a mouse GPR20-derived sequence (Mus musculus, UniProt Q8BYC4, A277V/A334G/A336G/DEL187-187/DEL317-317/F111Y/F318R/G190S/I170A/I299V/I338H/I343A/K166R/K271H/K319E/K330R/M323G/N268D/P337R/P351A/Q152R/R229H/R314H/S188T/S192P/S345P/T332S/T347A/T353A/T60A/T88I/V178A/V247I/V269M/V56A/W159C/Y312G); assay: Cell-ELISA binding to human/mouse chimeric GPR20 (EC1 substituted); details: hGPR20_mECD1, FIG. 22
T2 construct: expressed in transfected cells; host or cells: 293α cells, transient
Procedure: as §1
An expression vector for human GPR20 with EC1 substituted with a mouse GPR20-derived sequence was constructed using an In-Fusion (registered trademark) HD Cloning Kit (Clontech Laboratories, Inc.). Specifically, using the full-length human GPR20 expression vector pcDNA3.1-hGPR20 produced in Example 1 as a template, a PCR reaction was carried out with the primer set given below and KOD FX DNA polymerase (Toyobo Co., Ltd.) at 10 cycles each involving 98° C. for 10 seconds, 58° C. for 30 seconds, and 68° C. for 7 minutes to amplify a DNA fragment comprising the vector sequence. […]

T2 sequence (Q8BYC4 with tags, fused parts or gaps with the stated changes): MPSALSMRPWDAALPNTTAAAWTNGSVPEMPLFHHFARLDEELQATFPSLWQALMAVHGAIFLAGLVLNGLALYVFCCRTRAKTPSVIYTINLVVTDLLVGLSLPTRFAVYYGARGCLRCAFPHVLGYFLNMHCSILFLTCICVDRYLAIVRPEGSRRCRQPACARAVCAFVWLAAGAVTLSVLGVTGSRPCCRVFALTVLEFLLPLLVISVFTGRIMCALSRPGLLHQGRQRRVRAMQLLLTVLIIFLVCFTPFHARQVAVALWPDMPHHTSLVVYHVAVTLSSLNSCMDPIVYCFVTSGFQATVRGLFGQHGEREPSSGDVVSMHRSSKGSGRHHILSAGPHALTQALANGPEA

Molecule | binding activity after substituting EC1 of human GPR20 with that of mouse-derived GPR20
B1 | lost binding activity
B2 | lost binding activity
B3 | lost binding activity
